Laboratory results as given in the Immune Epitope Database (IEDB).
pKd: −log10 of the molar value.

Tests used:
HLA-B*15:09 = experiment: IEDB peptide-MHC binding, purified MHC/competitive/fluorescence; filed as Kd, often an IC50 or EC50 that approximates it; ≥ and ≤ were set here for values at or beyond the usual limits of such assays; conditions: source organism: Bacillus anthracis str. A0488
HLA-A*26:02 = experiment: as above; conditions: source organism: Bacillus anthracis str. A0488
HLA-B*39:01 = experiment: as above; conditions: source organism: Bacillus anthracis str. A0488
HLA-B*57:01 = experiment: IEDB peptide-MHC binding, purified MHC/direct/fluorescence; filed as Kd, often an IC50 or EC50 that approximates it; ≥ and ≤ were set here for values at or beyond the usual limits of such assays; conditions: source organism: Bacillus anthracis
HLA-B*07:02 = experiment: as above; conditions: source organism: Bacillus anthracis
HLA-B*15:02 = experiment: as above; conditions: source organism: Bacillus cereus 03BB108
HLA-B*35:01 = experiment: as above; conditions: source organism: Bacillus cereus 03BB108
HLA-B*15:01 = experiment: as above; conditions: source organism: Bacillus anthracis
HLA-A*31:01 = experiment: as above; conditions: source organism: Bacillus anthracis
HLA-A*02:01 = experiment: as above; conditions: source organism: Bacillus anthracis
HLA-B*58:01 = experiment: as above; conditions: source organism: Bacillus anthracis
HLA-B*46:01 = experiment: as above; conditions: source organism: Bacillus anthracis
HLA-A*68:02 = experiment: as above; conditions: source organism: Bacillus anthracis
HLA-A*69:01 = experiment: as above; conditions: source organism: Bacillus anthracis
HLA-B*08:03 = experiment: as above; conditions: source organism: Bacillus cereus 03BB108
HLA-A*11:01 = experiment: as above; conditions: source organism: Bacillus anthracis
HLA-A*26:01 = experiment: as above; conditions: source organism: Bacillus cereus 03BB108
HLA-B*15:17 = experiment: as above; conditions: source organism: Bacillus anthracis
HLA-A*01:01 = experiment: as above; conditions: source organism: Bacillus anthracis
HLA-A*03:01 = experiment: as above; conditions: source organism: Bacillus anthracis
HLA-B*27:05 = experiment: as above; conditions: source organism: Bacillus anthracis
HLA-B*48:01 = experiment: as above; conditions: source organism: Bacillus anthracis

Measured: pKd

SQMPPQKIM
7.66: HLA-B*15:02
6.55: HLA-B*15:09
5.43: HLA-B*48:01
6.18: HLA-B*35:01
5.52: HLA-B*39:01
6.90: HLA-B*15:01
≤ 4.70: all other assays above
